Self-aminoacylation data for 23 sequences are collected here from the supplement of paper PMC9233669.

Fewer inactive variants are shown than the library holds.

The test system of one series is biotinyl-Phe-oxazolone. The series can be described thus: self-aminoacylation, catalytic enhancement (BFO) (fold over background); higher = more active; k-Seq, kA / k0A0; sequences stand for … in GGGAAUGGAUCCACAUCUACGAAUUC…UUCACUGCAGACUUGACGAAGCUG
The method in brief:
(§1)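 Working in 50 μL HEPES/NaCl/KCl/MgCl2/CaCl2 buffer with 5% acetonitrile at pH 6.9–7.0, mutagenized RNA pools (0.43 μM; 21-nt variable region) were reacted with 2–1250 μM of each biotinyl-aminoacyl-oxazolone for 90 minutes at room temperature. Streptavidin capture followed, with quantification by triplicate qPCR and Illumina sequencing. Catalytic enhancement is reported as median kA over the uncatalyzed rate, the low-activity peak of a bimodal Gaussian fit to the data.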

For another series, the system named is biotinyl-Ile-oxazolone. In words: self-aminoacylation, catalytic enhancement (BIO) (fold over background); higher = more active; k-Seq, kA / k0A0; sequences stand for … in GGGAAUGGAUCCACAUCUACGAAUUC…UUCACUGCAGACUUGACGAAGCUG
An outline of the steps:
as §1

The test system of another series is biotinyl-Met-oxazolone. The series can be described thus: self-aminoacylation, catalytic enhancement (BMO) (fold over background); higher = more active; k-Seq, kA / k0A0; sequences stand for … in GGGAAUGGAUCCACAUCUACGAAUUC…UUCACUGCAGACUUGACGAAGCUG
An outline of the steps: as §1

The subject of a further series is biotinyl-Val-oxazolone. In words: self-aminoacylation, catalytic enhancement (BVO) (fold over background); higher = more active; k-Seq, kA / k0A0; sequences stand for … in GGGAAUGGAUCCACAUCUACGAAUUC…UUCACUGCAGACUUGACGAAGCUG
The method in brief: as §1

The subject of the next series is biotinyl-Leu-oxazolone. In words: self-aminoacylation, catalytic enhancement (BLO) (fold over background); higher = more active; k-Seq, kA / k0A0; sequences stand for … in GGGAAUGGAUCCACAUCUACGAAUUC…UUCACUGCAGACUUGACGAAGCUG
The method in brief: as §1

Another series deals with biotinyl-Trp-oxazolone. The series can be described thus: self-aminoacylation, catalytic enhancement (BWO) (fold over background); higher = more active; k-Seq, kA / k0A0; sequences stand for … in GGGAAUGGAUCCACAUCUACGAAUUC…UUCACUGCAGACUUGACGAAGCUG
An outline of the steps: as §1

On to “CUAAUUCAAACAAUCGGUUUG [Fam1A.1 aminoacylation ribozyme variant]”, for which the self-aminoacylation in the series with biotinyl-Phe-oxazolone stood at 3.96; in the series on biotinyl-Ile-oxazolone it was 0.802; with biotinyl-Met-oxazolone, 0.701; with biotinyl-Val-oxazolone, 0.724; in the series on biotinyl-Leu-oxazolone it was 0.696; in the series with biotinyl-Trp-oxazolone, 2.78.
For “CUACACUUCAAGCAAUCGGGC [Fam1B.1 aminoacylation ribozyme variant]”, the self-aminoacylation in the series with biotinyl-Phe-oxazolone came out at 0.999; in the series with biotinyl-Ile-oxazolone it was 1.48; in the series with biotinyl-Met-oxazolone, 1.95; in the series with biotinyl-Val-oxazolone, 1.42; with biotinyl-Leu-oxazolone it was 1.27; with biotinyl-Trp-oxazolone, 2.02.
Regarding “CUACACUUCAAGCAAUGGGUC [Fam1B.1 aminoacylation ribozyme variant]”, the self-aminoacylation in the series on biotinyl-Phe-oxazolone stood at 0.544; in the series with biotinyl-Ile-oxazolone it was 0.65; in the series on biotinyl-Met-oxazolone, 0.494; in the series with biotinyl-Val-oxazolone, 0.536; with biotinyl-Leu-oxazolone, 0.542; with biotinyl-Trp-oxazolone, 0.47.
As to “CUACAUCAAAAAAUCGGUCUG [Fam1A.1 aminoacylation ribozyme variant]”, the self-aminoacylation in the series with biotinyl-Phe-oxazolone was 1.35; with biotinyl-Ile-oxazolone it was 0.831; in the series on biotinyl-Met-oxazolone it was 0.712; with biotinyl-Val-oxazolone, 0.745; with biotinyl-Leu-oxazolone, 0.633; with biotinyl-Trp-oxazolone, 0.753.
As for “CUACAUCAAACAAUCGCUCUG [Fam1A.1 aminoacylation ribozyme variant]”, the self-aminoacylation in the series with biotinyl-Phe-oxazolone turned out to be 0.457; in the series with biotinyl-Ile-oxazolone, 0.803; in the series on biotinyl-Met-oxazolone, 0.777; in the series with biotinyl-Val-oxazolone it was 0.878; in the series with biotinyl-Leu-oxazolone, 0.89; in the series with biotinyl-Trp-oxazolone it was 0.67.
On to “CUACAUCAAACAAUCGGGCUG [Fam1A.1 aminoacylation ribozyme variant]”, for which the self-aminoacylation came out at 0.764 in the series with biotinyl-Phe-oxazolone; 1.36 in the series on biotinyl-Ile-oxazolone; 1.44 in the series on biotinyl-Met-oxazolone; 1.3 with biotinyl-Val-oxazolone; 0.965 in the series on biotinyl-Leu-oxazolone; 1.29 in the series on biotinyl-Trp-oxazolone.
On to “CUACAUCAAACAAUCGGUCUG [Fam1A.1 aminoacylation ribozyme variant]”, for which the self-aminoacylation in the series with biotinyl-Phe-oxazolone amounted to 2.27; in the series on biotinyl-Ile-oxazolone, 0.799; in the series on biotinyl-Met-oxazolone it was 0.759; in the series on biotinyl-Val-oxazolone it was 0.82; in the series on biotinyl-Leu-oxazolone, 0.736; with biotinyl-Trp-oxazolone, 1.41.
Consider “CUACAUCAAACAAUCGGUCUU [Fam1A.1 aminoacylation ribozyme variant]”, for which the self-aminoacylation stood at 1.45 with biotinyl-Phe-oxazolone; 0.69 with biotinyl-Ile-oxazolone; 0.791 in the series on biotinyl-Met-oxazolone; 0.748 with biotinyl-Val-oxazolone; 0.615 in the series with biotinyl-Leu-oxazolone; 1.25 with biotinyl-Trp-oxazolone.
In the case of “CUACAUCAAACAAUCUGUCUG [Fam1A.1 aminoacylation ribozyme variant]”, the self-aminoacylation is 0.795 in the series with biotinyl-Phe-oxazolone; 0.722 in the series on biotinyl-Ile-oxazolone; 0.533 with biotinyl-Met-oxazolone; 0.736 with biotinyl-Val-oxazolone; 0.624 in the series on biotinyl-Leu-oxazolone; 0.497 in the series with biotinyl-Trp-oxazolone.
As to “CUACAUCAAACACUCGGUCUG [Fam1A.1 aminoacylation ribozyme variant]”, the self-aminoacylation in the series with biotinyl-Phe-oxazolone is 3.01; with biotinyl-Ile-oxazolone it was 1.03; with biotinyl-Met-oxazolone, 1.03; in the series with biotinyl-Val-oxazolone, 1.26; with biotinyl-Leu-oxazolone it was 0.978; in the series on biotinyl-Trp-oxazolone, 1.11.
For the sequence “CUACAUCAAAUAAUCGGUCUG [Fam1A.1 aminoacylation ribozyme variant]”, the self-aminoacylation was 1.42 in the series on biotinyl-Phe-oxazolone; 0.801 with biotinyl-Ile-oxazolone; 0.804 in the series with biotinyl-Met-oxazolone; 0.864 in the series with biotinyl-Val-oxazolone; 0.717 with biotinyl-Leu-oxazolone; 0.824 with biotinyl-Trp-oxazolone.
In the case of “CUACAUUAAACAAUCGGUCUG [Fam1A.1 aminoacylation ribozyme variant]”, the self-aminoacylation with biotinyl-Phe-oxazolone was found to be 0.647; in the series on biotinyl-Ile-oxazolone it was 0.992; with biotinyl-Met-oxazolone, 1.14; with biotinyl-Val-oxazolone, 0.819; in the series on biotinyl-Leu-oxazolone, 0.898; in the series with biotinyl-Trp-oxazolone, 0.75.
As for “CUACAUUUCAAGCAAUCGGUC [Fam1B.1 aminoacylation ribozyme variant]”, the self-aminoacylation with biotinyl-Phe-oxazolone was 2.41; with biotinyl-Ile-oxazolone, 0.887; in the series on biotinyl-Met-oxazolone, 0.748; with biotinyl-Val-oxazolone, 0.849; with biotinyl-Leu-oxazolone, 0.705; in the series with biotinyl-Trp-oxazolone, 1.45.
For the sequence “CUACCUAAAACAAUCGGUCUG [Fam1A.1 aminoacylation ribozyme variant]”, the self-aminoacylation in the series with biotinyl-Phe-oxazolone came to 0.787; with biotinyl-Ile-oxazolone, 0.883; with biotinyl-Met-oxazolone, 0.761; in the series with biotinyl-Val-oxazolone, 0.991; with biotinyl-Leu-oxazolone, 0.624; with biotinyl-Trp-oxazolone, 0.697.
As to “CUACCUCAAACAAUCGCUCUG [Fam1A.1 aminoacylation ribozyme variant]”, the self-aminoacylation with biotinyl-Phe-oxazolone turned out to be 0.589; in the series with biotinyl-Ile-oxazolone, 0.818; in the series on biotinyl-Met-oxazolone, 0.85; in the series on biotinyl-Val-oxazolone, 1.17; with biotinyl-Leu-oxazolone, 1.27; with biotinyl-Trp-oxazolone, 1.83.
On to “CUACCUCAAACACUCGGUCUG [Fam1A.1 aminoacylation ribozyme variant]”, for which the self-aminoacylation with biotinyl-Phe-oxazolone was found to be 1.74; with biotinyl-Ile-oxazolone, 1.22; with biotinyl-Met-oxazolone, 1.08; in the series on biotinyl-Val-oxazolone, 1.6; with biotinyl-Leu-oxazolone, 1.31; in the series on biotinyl-Trp-oxazolone, 1.93.
For “CUACCUCAAACGAUCGGUCUG [Fam1A.1 aminoacylation ribozyme variant]”, the self-aminoacylation in the series on biotinyl-Phe-oxazolone is 1.42; with biotinyl-Ile-oxazolone, 0.987; in the series with biotinyl-Met-oxazolone, 1; in the series with biotinyl-Val-oxazolone it was 0.761; in the series on biotinyl-Leu-oxazolone, 1.03; with biotinyl-Trp-oxazolone, 0.954.
Take “CUACCUCAAAUAAUCGGUCUG [Fam1A.1 aminoacylation ribozyme variant]”: the self-aminoacylation with biotinyl-Phe-oxazolone came out at 1.1; in the series on biotinyl-Ile-oxazolone, 1.05; with biotinyl-Met-oxazolone it was 1.08; in the series on biotinyl-Val-oxazolone, 0.863; in the series with biotinyl-Leu-oxazolone, 1.12; with biotinyl-Trp-oxazolone, 1.23.
“CUACGUAAAACAAUCGGUCUG [Fam1A.1 aminoacylation ribozyme variant]”: the self-aminoacylation in the series with biotinyl-Phe-oxazolone came out at 1.38; with biotinyl-Ile-oxazolone, 1.18; in the series on biotinyl-Met-oxazolone it was 0.999; in the series with biotinyl-Val-oxazolone it was 0.999; in the series with biotinyl-Leu-oxazolone, 0.755; with biotinyl-Trp-oxazolone, 0.819.
As for “CUACGUCAAACAAACGGUCUG [Fam1A.1 aminoacylation ribozyme variant]”, the self-aminoacylation with biotinyl-Phe-oxazolone was determined as 0.89; with biotinyl-Ile-oxazolone, 1.06; with biotinyl-Met-oxazolone it was 1.08; with biotinyl-Val-oxazolone, 1.03; in the series on biotinyl-Leu-oxazolone, 1.16; in the series on biotinyl-Trp-oxazolone it was 0.904.
On to “CUACGUCACACAAUCGGUCUG [Fam1A.1 aminoacylation ribozyme variant]”, for which the self-aminoacylation in the series with biotinyl-Phe-oxazolone stood at 0.794; with biotinyl-Ile-oxazolone, 0.999; in the series with biotinyl-Met-oxazolone, 0.943; in the series on biotinyl-Val-oxazolone it was 0.962; in the series on biotinyl-Leu-oxazolone it was 0.98; in the series on biotinyl-Trp-oxazolone it was 0.986.
Consider “CUACGUCAGACAAUCGGUCUG [Fam1A.1 aminoacylation ribozyme variant]”, for which the self-aminoacylation in the series with biotinyl-Phe-oxazolone amounted to 1.67; with biotinyl-Ile-oxazolone, 1.61; in the series with biotinyl-Met-oxazolone it was 1.86; in the series with biotinyl-Val-oxazolone it was 1.42; in the series with biotinyl-Leu-oxazolone, 1.28; in the series with biotinyl-Trp-oxazolone, 0.99.
Turning to “CUACGUCGAACAAUCGGUCUG [Fam1A.1 aminoacylation ribozyme variant]”, the self-aminoacylation was found to be 4.04 in the series on biotinyl-Phe-oxazolone; 1.7 in the series with biotinyl-Ile-oxazolone; 1.91 in the series on biotinyl-Met-oxazolone; 1.93 in the series on biotinyl-Val-oxazolone; 1.83 in the series with biotinyl-Leu-oxazolone; 1.3 with biotinyl-Trp-oxazolone.
